The results in this text go back to CN111320691A (CHENG LIANSHENG; LIU JING, dated 2020).

The target of test [1] is T1, 人4-1BB on CHO-K1 cells (CHO-h4-1BB) (human, UniProt Q07011 24-255).
T1 construct: whole, on cells; also called 高表达人4-1BB的CHO-K1细胞株
Description: FACS on CHO-h4-1BB cells, antibody 20 to 0.027 ug/ml.

Test [2] deals with T2, 人4-1BB (h4-1BB) antigen protein, coated on ELISA plates (human, UniProt Q07011 24-186).
T2 construct: Soluble antigen for plate coating; also called 人抗原4-1BB; 抗原人H4-1BB蛋白
T2 sequence (Q07011 24-186 limits assumed): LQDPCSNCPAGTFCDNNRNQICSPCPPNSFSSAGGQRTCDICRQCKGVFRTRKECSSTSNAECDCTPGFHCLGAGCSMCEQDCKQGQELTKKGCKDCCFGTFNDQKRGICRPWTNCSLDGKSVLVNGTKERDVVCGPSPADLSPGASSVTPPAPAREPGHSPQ
The test can be described thus: ELISA, antigen coated at 1 ug/ml, antibody 1000 to 0.24 ng/ml.

T1 sequence (Q07011 24-255): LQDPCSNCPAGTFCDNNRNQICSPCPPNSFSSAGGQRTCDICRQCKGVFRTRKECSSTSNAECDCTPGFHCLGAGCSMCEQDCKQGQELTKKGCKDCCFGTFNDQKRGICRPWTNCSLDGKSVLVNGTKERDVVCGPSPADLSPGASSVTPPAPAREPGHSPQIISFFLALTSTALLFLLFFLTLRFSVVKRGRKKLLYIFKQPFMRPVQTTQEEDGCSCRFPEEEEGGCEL

B1: 单克隆抗体HKB6 (抗人4-1BB抗体) (antibody, mouse IgG1, kappa, V domains shown)
VH: QVQLKESGPGLVAPSQSLSITCTVSGFSLTTYDISWIRQPPGKGLEWLGVIWTGGGTNYNSTFMSRLSINKDNSKSQVFLKMNSLQTDDTAIYYCVRVDYWGQGTSVTVSS
VL: DVVMTQTPLSLPVSLGDQASISCRSSQSLVHSNGNTYLHWFLQKPGQSPKLLIYKVSNRFPGVPDRFSGSGSGTDFTLKISRVEAEDLGVYFCSQNTHVPWTFGGGTKLEIKR
notes: Whole antibody from a mouse hybridoma, purified on Protein G; also called HKB6单克隆抗体
Take B1: the binding result in test [1] and in test [2] was “binds” throughout.
